# According to US20190049430:
# T1: FRET peptide MCA-ATDHGSES-Lys DNP (no RA motif)
# T1 chain: ATDHGSES
# T2: OPA1 FRET substrate MCA-AFRATDHG-DNP
# T2 chain: AFRATDHG
# Experiments:
# [1] = molecular target: T1, FRET peptide MCA-ATDHGSES-Lys DNP (no …)
# [2] = molecular target: T2, OPA1 FRET substrate MCA-AFRATDHG-DNP
protein,measurement,setting,value
"Metalloendopeptidase OMA1 (OMA1), endogenous enzyme in normal rat kidney (NRK-52E) cell lysate (protein) AAPVPLLMLILKPVQKLLAIIVGRGIRKWWQALPPDKKALFKDSVKRNKWRLLLGLSAFGLLFVVFYFTHLEVSPVTGRSKLLLVGKEHFRLLSDLEYEVWMEEFKNDLLPEEDPRYLTVKKVVYHLTQCNQDVPGVSEINWVVHVVHSPKVNAFVLPNGQVFVFTGLLNSVTDMHQLSFLLGHEIAHAVLGHAAEKASLVHLLDFLGMIFLTMIWAICPRDSLAVLGQWIQSKLQEYMFDRPYSRTLEAEADKIGLQLAAKACVDVRASSVFWQQMEFSESLHGYPKLPEWLSTHPSHGNRAEYLDRLIPQALKLREVCNCPPLSGPDPRLLFRLTVKHLLEDSEKEDLNITVKKQKPDALPIQKQEQIPLTYALGKRTAG",OMA1 Activity (average slope over 30 min compared to AFRATDHG substrate),[1],2.71%
same,OMA1 Activity (average slope over 30 min compared to AFRATDHG substrate),[2],100%
